Assay results published in FireProtDB (doi:10.1021/bi0512400).
Where “and” joins values, the source holds several entries; their conditions need not be identical. Equal entries are not always repeated.

B1: Alpha-lactalbumin, P00712 (parent)
chain: MMSFVSLLLVGILFHATQAEQLTKCEVFQKLKDLKDYGGVSLPEWVCTAFHTSGYDTQAIVQNNDSTEYGLFQINNKIWCKDDQNPHSRNICNISCDKFLDDDLTDDIVCAKKILDKVGINYWLAHKALCSEKLDQWLCEKL

Variants of: B1
Conditions: Capra hircus, pH 7.5, 25 °C, GdnHCl, CD, Tris 20 mM, Ca2+ 10 mM, structure 1HFY, whole UniProt chain shown

## MMSFVSLLLVGILFHATQAEQLTKCEVFQKLKDLKDYGGVSLPEFVCTAFHTSGYDTQAIVQNNDSTEYGLFQINNKIWCKDDQNPHSRNICNISCDKFLDDDLTDDIVCAKKILDKVGINYWLAHKALCSEKLDQWLCEKL [W45F]
  ddG of mutation (higher = less stable): 2.4 kcal/mol
  denaturant m value: 2.81 kcal/mol/M
  unfolding free energy: 7.84 kcal/mol
transition: 3
  denaturant m value: 1.65 kcal/mol/M and 1.16 kcal/mol/M
  unfolding free energy: 4.18 kcal/mol and 3.66 kcal/mol

## MMSFVSLLLVGILFHATQAEQLTKCEVFQKLKDLKDYGGVSLPEWVCTAFHTSGYDTQAIVQNNDSTEYGLFQINNKIWCKDDQNPHSRNICNISCDKFLDDDLTDDIVCAKKILDKVGINYFLAHKALCSEKLDQWLCEKL [W123F]
  ddG of mutation (higher = less stable): 2.27 kcal/mol
  denaturant m value: 2.8 kcal/mol/M
  unfolding free energy: 7.97 kcal/mol

## MMSFVSLLLVGILFHATQAEQLTKCEVFQKLKDLKDYGGVSLPEWVCTAFHTSGYDTQAIVQNNDSTEYGLFQINNKIWCKDDQNPHSRNICNISCDKFLDDDLTDDIVCAKKILDKVGINYWLAHKALCSEKLDQFLCEKL [W137F]
  ddG of mutation (higher = less stable): -0.16 kcal/mol
  denaturant m value: 3.06 kcal/mol/M
  unfolding free energy: 10.4 kcal/mol

## MMSFVSLLLVGILFHATQAEQLTKCEVFQKLKDLKDYGGVSLPEWVCTAFHTSGYDTQAIVQNNDSTEYGLFQINNKIFCKDDQNPHSRNICNISCDKFLDDDLTDDIVCAKKILDKVGINYWLAHKALCSEKLDQWLCEKL [W79F]
  ddG of mutation (higher = less stable): 1.27 kcal/mol
  denaturant m value: 2.65 kcal/mol/M
  unfolding free energy: 8.97 kcal/mol
transition: 3
  denaturant m value: 1.51 kcal/mol/M and 1.14 kcal/mol/M
  unfolding free energy: 4.98 kcal/mol and 3.99 kcal/mol
